According to patent US20130225493A1:

B1: FGF-18^Δ37, O76093 38-207 (ligand)
chain: MENQTRARDDVSRKQLRLYQLYSRTSGKHIQVLGRRISARGEDGDKYAQLLVETDTFGSQVRIKGKETEFYLCMNRKGKLVGKPDGTSKECVFIEKVLENNYTALMSAKYSGWYVGFTKKGRPRKGPKTRENQQDVHFMKRYPKGQPELQKPFKYTTVTKRSRRIRPTHPA
modifications: here or on the partner: biotinylated in the immobilized receptor assays (sites not given)
B2: FGF-18^Δ51, O76093 52-207 (ligand)
chain: MLRLYQLYSRTSGKHIQVLGRRISARGEDGDKYAQLLVETDTFGSQVRIKGKETEFYLCMNRKGKLVGKPDGTSKECVFIEKVLENNYTALMSAKYSGWYVGFTKKGRPRKGPKTRENQQDVHFMKRYPKGQPELQKPFKYTTVTKRSRRIRPTHPA
modifications: here or on the partner: biotinylated in the immobilized receptor assays (sites not given)
B3: FGF-18^Δ45, O76093 46-207 (ligand)
chain: MDVSRKQLRLYQLYSRTSGKHIQVLGRRISARGEDGDKYAQLLVETDTFGSQVRIKGKETEFYLCMNRKGKLVGKPDGTSKECVFIEKVLENNYTALMSAKYSGWYVGFTKKGRPRKGPKTRENQQDVHFMKRYPKGQPELQKPFKYTTVTKRSRRIRPTHPA
modifications: here or on the partner: biotinylated in the immobilized receptor assays (sites not given)
B4: FGF-18 (recombinant wild type, mature form without the signal peptide), O76093 29-207 (ligand)
chain: MENVDFRIHVENQTRARDDVSRKQLRLYQLYSRTSGKHIQVLGRRISARGEDGDKYAQLLVETDTFGSQVRIKGKETEFYLCMNRKGKLVGKPDGTSKECVFIEKVLENNYTALMSAKYSGWYVGFTKKGRPRKGPKTRENQQDVHFMKRYPKGQPELQKPFKYTTVTKRSRRIRPTHPA
modifications: here or on the partner: biotinylated in the immobilized receptor assays (sites not given)

What follows are binders tested against FGFR3-IIIc stably expressed on FDCP cells, P22607 (assay: cell-based or functional assay).
FGFR3-IIIc stably expressed on FDCP cells, P22607, sequence (P22607 23-806): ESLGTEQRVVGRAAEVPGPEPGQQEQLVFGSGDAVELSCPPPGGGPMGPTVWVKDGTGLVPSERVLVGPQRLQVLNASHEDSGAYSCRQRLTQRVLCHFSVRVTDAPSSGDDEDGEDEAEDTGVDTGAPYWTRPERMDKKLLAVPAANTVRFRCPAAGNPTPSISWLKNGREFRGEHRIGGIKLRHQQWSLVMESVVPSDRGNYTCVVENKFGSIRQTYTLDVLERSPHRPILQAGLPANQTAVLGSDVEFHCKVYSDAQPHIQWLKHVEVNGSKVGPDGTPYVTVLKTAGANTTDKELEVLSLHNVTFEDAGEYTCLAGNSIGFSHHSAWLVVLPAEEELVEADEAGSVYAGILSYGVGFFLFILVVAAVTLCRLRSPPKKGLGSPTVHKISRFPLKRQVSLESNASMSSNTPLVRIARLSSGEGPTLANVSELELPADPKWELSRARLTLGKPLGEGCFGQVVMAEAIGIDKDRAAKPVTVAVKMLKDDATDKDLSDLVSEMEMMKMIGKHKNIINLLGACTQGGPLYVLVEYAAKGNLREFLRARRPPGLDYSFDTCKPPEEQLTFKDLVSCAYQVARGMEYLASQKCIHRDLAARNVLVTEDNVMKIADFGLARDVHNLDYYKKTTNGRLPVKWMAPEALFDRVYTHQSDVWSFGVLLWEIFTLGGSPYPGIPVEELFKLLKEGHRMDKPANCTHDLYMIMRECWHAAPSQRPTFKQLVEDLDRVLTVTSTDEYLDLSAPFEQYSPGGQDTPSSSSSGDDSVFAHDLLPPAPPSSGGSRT

| EC50 scores of FGF ligands in cell proliferation of FDCPR3 [ng/mL] | Binder |
| --- | --- |
| 3.14 | B1 |
| 3.97 | B2 |
| 5.44 | B3 |
| 15.4 | B4 |
